Measurements published in IntAct's records for PubMed 20959446.

B1: CMRF35-like molecule 6 (Homo sapiens), Q08708 (parent)
chain: MTARAWASWRSSALLLLLVPGYFPLSHPMTVAGPVGGSLSVQCRYEKEHRTLNKFWCRPPQILRCDKIVETKGSAGKRNGRVSIRDSPANLSFTVTLENLTEEDAGTYWCGVDTPWLRDFHDPIVEVEVSVFPAGTTTASSPQSSMGTSGPPTKLPVHTWPSVTRKDSPEPSPHPGSLFSNVRFLLLVLLELPLLLSMLGAVLWVNRPQRSSRSRQNWPKGENQ
partner: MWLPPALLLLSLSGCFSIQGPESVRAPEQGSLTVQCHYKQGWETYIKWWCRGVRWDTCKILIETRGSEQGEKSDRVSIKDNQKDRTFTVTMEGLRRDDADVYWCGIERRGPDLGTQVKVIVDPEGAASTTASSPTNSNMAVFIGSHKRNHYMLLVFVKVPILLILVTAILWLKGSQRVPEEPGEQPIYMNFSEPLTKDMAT
B2: CMRF35-like molecule 6 (Homo sapiens), Q08708 (parent)
chain: B1 chain
B3: CMRF35-like molecule 7 (Homo sapiens), A8K4G0 (parent)
chain: B1 partner
partner: B1 chain

Variants of: B1
Details: with clm7_human CD300LB, A8K4G0

effect of a mutation on the interaction | Variant
with no effect | E191V

Variants of: B2
Details: with fcerg_human FCER1G

effect of a mutation on the interaction | Variant
with no effect | E191V

Variants of: B3
Details: with clm6_human CD300C, Q08708

effect of a mutation on the interaction | Variant
with no effect | C50G
with no effect | W103G
with no effect | K158L
with no effect | E63S
with no effect | D112M
with no effect | W55G
